T1: recombinant CD81 large extracellular loop
T1 chain: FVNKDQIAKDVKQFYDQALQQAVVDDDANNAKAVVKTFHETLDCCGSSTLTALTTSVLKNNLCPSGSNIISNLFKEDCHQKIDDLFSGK


Experiments:
[1] = molecular target: recombinant CD81 large extracellular loop; test: SPR; BiaCore T200, CM5 chip, room temperature; CD81-LEL immobilised at about 150 RU; Fc-E1E2 flowed at 0-250 ug/ml; HBS-EP pH 7.4, 150 mM NaCl; 1:1 steady state binding model
[2] = molecular target: T1, recombinant CD81 large extracellular …; test: SPR

Fc-E1E2 from H77 (GT1a), recombinant full-length E1E2 heterodimer (complex), sequence (P27958 192-383 limits assumed): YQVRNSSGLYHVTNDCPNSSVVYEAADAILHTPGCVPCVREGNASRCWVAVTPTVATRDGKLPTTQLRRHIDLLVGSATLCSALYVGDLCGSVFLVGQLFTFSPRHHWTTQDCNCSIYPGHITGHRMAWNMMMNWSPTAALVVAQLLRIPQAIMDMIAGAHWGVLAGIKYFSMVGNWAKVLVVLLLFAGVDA
Fc-E1E2 from H77 (GT1a), recombinant full-length E1E2 heterodimer (complex), sequence (P27958 384-746 limits assumed): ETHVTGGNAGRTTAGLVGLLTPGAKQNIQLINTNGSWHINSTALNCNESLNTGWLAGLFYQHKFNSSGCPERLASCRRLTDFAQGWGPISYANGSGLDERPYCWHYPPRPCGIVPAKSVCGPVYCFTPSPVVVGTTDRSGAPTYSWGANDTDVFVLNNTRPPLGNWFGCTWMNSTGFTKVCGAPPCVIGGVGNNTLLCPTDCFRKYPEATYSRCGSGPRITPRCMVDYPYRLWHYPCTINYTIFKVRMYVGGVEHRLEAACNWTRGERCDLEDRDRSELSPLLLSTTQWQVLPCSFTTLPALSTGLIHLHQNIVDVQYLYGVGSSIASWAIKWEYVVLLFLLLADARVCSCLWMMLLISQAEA

Molecule	Kd [1] [nM]	koff [2] [s⁻¹]
Fc-E1E2 from HK6a (GT6a), recombinant full-length E1E2 heterodimer (complex)	775	
Fc-E1E2 from J6 (GT2a), recombinant full-length E1E2 heterodimer (complex)	243	
Fc-E1E2 from H77 (GT1a), recombinant full-length E1E2 heterodimer (complex)	382	
Fc-E1E2 from Con1 (GT1b), recombinant full-length E1E2 heterodimer (from UniProt Q9WMX2 192-383; Q9WMX2 384-746) (complex)	327	
Fc-E1E2 from S52 (GT3a), recombinant full-length E1E2 heterodimer (complex)	71	
Fc-E1E2 from Con1 (GT1b), recombinant full-length E1E2 heterodimer (complex) chain 1: YEVRNVSGVYHVTNDCSNASIVYEAADMIMHTPGCVPCVRENNSSRCWVALTPTLAARNASVPTTTIRRHVDLLVGAAALCSAMYVGDLCGSVFLVAQLFTFSPRRHETVQDCNCSIYPGHVTGHRMAWDMMMNWSPTAALVVSQLLRIPQAVVDMVAGAHWGVLAGLAYYSMVGNWAKVLIVMLLFAGVDG chain 2: GTYVTGGTMAKNTLGITSLFSPGSSQKIQLVNTNGSWHINRTALNCNDSLNTGFLAALFYVHKFNSSGCPERMASCSPIDAFAQGWGPITYNESHSSDQRPYCWHYAPRPCGIVPAAQVCGPVYCFTPSPVVVGTTDRFGVPTYSWGENETDVLLLNNTRPPQGNWFGCTWMNSTGFTKTCGGPPCNIGGIGNKTLTCPTDCFRKHPEATYTKCGSGPWLTPRCLVHYPYRLWHYPCTVNFTIFKVRMYVGGVEHRLEAACNWTRGERCNLEDRDRSELSPLLLSTTEWQVLPCSFTTLPALSTGLIHLHQNVVDVQYLYGIGSAVVSFAIKWEYVLLLFLLLADARVCACLWMMLLIAQAEA		0.00277
Fc-E1E2 from S52 (GT3a), recombinant full-length E1E2 heterodimer (complex) chain 1: LEWRNTSGLYVLTNDCSNSSIVYEADDVILHTPGCVPCVQDDNTSTCWTPVTPTVAVRYVGATTASIRSHVDLLVGAATLCSALYVGDMCGAVFLVGQAFTFRPRRHQTVQTCNCSLYPGHVSGHRMAWDMMMNWSPAVGMVVAHILRLPQTLFDILAGAHWGILAGLAYYSMQGNWAKVAIVMIMFSGVDA chain 2: ETYVTGGSVAHSARGLTSLFSMGAKQKLQLVNTNGSWHINSTALNCNESINTGFIAGLFYYHKFNSTGCPQRLSSCKPIISFRQGWGPLTDANITGPSDDRPYCWHYAPRPCSVVPASSVCGPVYCFTPSPVVVGTTDIKGKPTYNWGENETDVFLLESLRPPSGRWFGCAWMNSTGFLKTCGAPPCNIYGGEGDPENETDLFCPTDCFRKHPEATYSRCGAGPWLTPRCMVDYPYRLWHYPCTVNFTLFKVRMFVGGFEHRFTAACNWTRGERCNIEDRDRSEQHPLLHSTTELAILPCSFTPMPALSTGLIHLHQNIVDVQYLYGVGSDMVGWALKWEFVILVFLLLADARVCVALWLMLMVSQAEA		0.000465
Fc-E1E2 from J6 (GT2a), recombinant full-length E1E2 heterodimer (complex) chain 1: AEVKNISTGYMVTNDCTNDSITWQLQAAVLHVPGCVPCEKVGNASQCWIPVSPNVAVQRPGALTQGLRTHIDMVVMSATLCSALYVGDLCGGVMLAAQMFIVSPQHHWFVQDCNCSIYPGTITGHRMAWDMMMNWSPTATMILAYAMRVPEVIIDIISGAHWGVMFGLAYFSMQGAWAKVVVILLLAAGVDA chain 2: RTHTVGGSAAQTTGRLTSLFDMGPRQKIQLVNTNGSWHINRTALNCNDSLHTGFIASLFYTHSFNSSGCPERMSACRSIEAFRVGWGALQYEDNVTNPEDMRPYCWHYPPRQCGVVSAKTVCGPVYCFTPSPVVVGTTDRLGAPTYTWGENETDVFLLNSTRPPLGSWFGCTWMNSSGYTKTCGAPPCRTRADFNASTDLLCPTDCFRKHPDTTYLKCGSGPWLTPRCLIDYPYRLWHYPCTVNYTIFKIRMYVGGVEHRLTAACNFTRGDRCNLEDRDRSQLSPLLHSTTEWAILPCSYSDLPALSTGLLHLHQNIVDVQFMYGLSPALTKYIVRWEWVILLFLLLADARVCACLWMLILLGQAEA		0.00104
Fc-E1E2 from HK6a (GT6a), recombinant full-length E1E2 heterodimer (complex) chain 1: LTYGNSSGLYHLTNDCPNSSIVLEADAMILHLPGCLPCVRVNNNQSICWHAVSPTLAIPNASTPATGFRRHVDLLAGAAVVCSSLYIGDLCGSLFLAGQLFTFQPRRHWTVQDCNCSIYTGHVTGHRMAWDMMMNWSPTTTLVLSSILRVPEICASVISGGHWGILLAVAYFGMAGNWLKVLAVLFLFAGVE chain 2: ATTTIGHQVGRTTGGLASLFSIGPRQNLQLINTTGSWHINRTALNCNDSLQTGFITSLFYAKNVNSSGCPERMAACKPLADFRQGWGQITYKVNISGPSDDRPYCWHYAPRPCDVVSARTVCGPVYCFTPSPVVVGTTDKLGIPTYNWGENETDVFMLESLRPPTGGWFGCTWMNSTGFTKTCGAPPCQIVPGDYNSSANELLCPTDCFRKHPEATYQRCGSGPWITPRCLVDYPYRLWHYPCTVNFTLHKVRMFVGGIEHRFDAACNWTRGERCDLHDRDRIEMSPLLFSTTQLAILPCSFSTMPALSTGLIHLHQNIVDVQYLYGVSSSVTSWVVKWEYIVLVFLVLADARICTCLWLMLLITNVEA		0.0022

Source: PMC9273934 (2022)
